The values that follow come from patent US20090285843A1, “EPITOPE SEQUENCES” (Mannkind Corporation, priority 2002, published 2009).

One assay concerns the target HLA-A2.1 (Homo sapiens, UniProt P04439, D140Y/D185E/D98H/E176V/E277Q/G131W/G231S/I119V/I121R/I166T/I218V/L300P/L318F/N151K/N90K/P208A/P217A/Q86G/Q94H/R138H/R169H/T345S). As to the kind of experiment: HLA-A0201 binding assay (T2 cells, flow cytometry). The conditions noted are these: for binding to HLA-A2.1: T2 cells, flow cytometry, compared with control peptides.
For a further assay, the system named is metastatic melanoma. Conditions: first 15 patients; intradermal peptide with IL-12; cited from earlier work.
The test system of assay [1] is tumor cells expressing other SSX proteins. Nature of the assay: Cross-reactivity of CTL with other SSX proteins. The format is cell-based. An excerpt: The surrounding regions have also been generally well conserved. Thus the housekeeping proteasome can cleave following V49 in all five sequences.
Assay [2] deals with peptide pulsed T2 cells. Nature of the assay: In vivo immunization of mice, in vitro stimulation, chromium-release assay measuring CTL activity. Also noted: species or system HHD1 transgenic A*0201 mice. Conditions: 100 nmol peptide s.c. with HTL epitope peptide in IFA; 51Cr-release. The method, then:
Using spleens from 2 naive mice for each group of immunized mice, un-immunized mice were sacrificed and the carcasses were placed in alcohol. Using sterile instruments, the top dermal layer of skin on the mouse's left side (lower mid-section) was cut through, exposing the peritoneum. The peritoneum was saturated with alcohol, and the spleen was aseptically extracted. The spleen was placed in a petri dish with serum-free media. Splenocytes were isolated by using sterile plungers from 3 ml syringes to mash the spleens. Cells were collected in a 50 ml conical tubes in serum-free media, rinsing dish well. Cells were centrifuged ([…], 7 min) and washed one time with RPMI. Fresh spleen cells were resuspended to a concentration of 1×10^6 cells per ml in RPMI-10% FCS (fetal calf serum). 25 µg/ml lipopolysaccharide and 7 μg/ml Dextran Sulfate were added. Cell were incubated for 3 days in T-75 flasks at 37° C., with 5% CO2. Splenic blasts were collected in 50 ml tubes pelleted ([…], 7 min) and resuspended to 3×10^7/ml in RPMI. The blasts were pulsed with the priming peptide at 50 μg/ml, RT 4 hr. mitomycin C-treated at 25 μg/ml, 37° C., 20 min and washed three times with DMEM. […]
During incubation they were gently shaken every 15 minutes. […] Supernatants were harvested and counted using a gamma counter.

Another assay concerns HLA-A1+ CD8+ T cells. As to the kind of experiment: gamma-IFN-based ELISPOT assay. The conditions noted are these: blocking of gamma IFN production by anti-HLA-A1 monoclonal antibody. It is filed as cell-based, human. How it is done:
The wells of a nitrocellulose-backed microtiter plate were coated with capture antibody by incubating overnight at 4° C. using 50 μl (microliter)/well of 4 μg/ml murine anti-human γ (gamma)-IFN monoclonal antibody in coating buffer (35 mM sodium bicarbonate, 15 mM sodium carbonate, pH 9.5). Unbound antibody was removed by washing 4 times 5 min. with PBS. Unbound sites on the membrane then were blocked by adding 200 μl (microliter)/well of RPMI medium with 10% serum and incubating 1 hr. at room temperature. Antigen stimulated CD8^+ T cells, in 1:3 serial dilutions, were seeded into the wells of the microtiter plate using 100 μl (microliter)/well, starting at 2×10^5 cells/well. (Prior antigen stimulation was essentially as described in Scheibenbogen, C. et al. Int. J. […] PSMA462-471 (SEQ ID NO. 62) was added to a final concentration of 10 μg/ml and IL-2 to 100 U/ml and the cells cultured at 37° C. in a 5% CO2, water-saturated atmosphere for 40 hrs. Following this incubation the plates were washed with 6 times 200 μl (microliter)/well of PBS containing 0.05% Tween-20 (PBS-Tween). […] The plate was air dried and the spots counted using a stereomicroscope. […] No reactivity is detected from cultures without peptide (data not shown).

The target in assay [3] is T1, proteasome isolated from human red blood cells (Homo sapiens, UniProt P28072+P28074+Q99436).
T1 construct: from tissue; host or cells: human red blood cells
As to the kind of experiment: N-terminal pool sequence analysis of proteasomal digest. The format is biochemical. The conditions noted are these: in vitro proteasome digestion and N-terminal pool sequencing. An excerpt: One aliquot at one hour of the proteasomal digestion (see Example 3 part 3 above) was subjected to N-terminal amino acid sequence analysis by an ABI 473A Protein Sequencer (Applied Biosystems, Foster City, Calif.). Determination of the sites and efficiencies of cleavage was based on consideration of the sequence cycle, the repetitive yield of the protein sequencer, and the relative yields of amino acids unique in the analyzed sequence. That is if the unique (in the analyzed sequence) residue X appears only in the nth cycle a cleavage site exists n−1 residues before it in the N-terminal direction.

The subject of assay [4] is peptide pulsed T2 cells. Nature of the assay: In vitro immunization of HLA-A2+ blood (CTL induction cultures), chromium release assay. The format is cell-based, human. The method, then:
(§1) , tyrosinase207-215 (SEQ ID NO. 8) was used in an in vitro immunization of HLA-A2^+ blood to generate CTL (see CTL Induction Cultures below).
(§2) PBMCs from normal donors were purified by centrifugation in Ficoll-Hypaque from buffy coats. All cultures were carried out using the autologous plasma (AP) to avoid exposure to potential xenogeneic pathogens and recognition of FBS peptides. To favor the in vitro generation of peptide-specific CTL, we employed autologous dendritic cells (DC) as APCs. DC were generated and CTL were induced with DC and peptide from PBMCs as described (Keogh et al., 2001). Briefly, monocyte-enriched cell fractions were cultured for 5 days with GM-CSF and IL-4 and were cultured for 2 additional days in culture media with 2 μg/ml CD40 ligand to induce maturation. 2×10^6 CD8+-enriched T lymphocytes/well and 2×10^5 peptide-pulsed DC/well were co-cultured in 24-well plates in 2 ml RPMI supplemented with 10% AP, 10 ng/ml IL-7 and 20 IU/ml IL-2. Cultures were restimulated on days 7 and 14 with autologous irradiated peptide-pulsed DC.

Another assay relates to 624.38. Nature of the assay: In vitro induced CTL, chromium release assay on tumor cell line. The format is cell-based, human. Conditions: 624.38, HLA-A2+, tyrosinase+. The method, then:
as §1, §2

In the next assay the test system is HTB64. The description is as above. Conditions: HTB64, HLA-A2+, tyrosinase+. The format is cell-based, human. How it is done: as §1, §2

For the substance “YTLRVDCTPL (listed as Homo sapiens) [PSMA460-469]”, the “binding to HLA-A2.1” value with HLA-A2.1 is listed as “bind HLA-A2.1 to a similar extent as the known A2.1 binder FLPSDYFPSV”.
Consider “MART-126-35 peptide: MART-1 26-35 peptide given intradermally with IL-12 to metastatic melanoma patients (Cebon et al.)”, for which the clinical response in the assay on metastatic melanoma is 1 complete remission, 1 partial remission, and 1 mixed response.
As for MMNDQLMFL [PSMA663-671], the “binding to HLA-A2.1” value in the assay with HLA-A2.1 is given as “significant binding at even lower concentrations than the positive control peptide”.
Regarding KASEKIFYV [SSX-241-49], in the assay with HLA-A2.1, the “binding to HLA-A2.1” value is listed as “bind HLA-A2.1 to a similar extent as the known A2.1 binder FLPSDYFPSV”. In addition, the “cross-reactivity of CTL generated by immunization” value in assay [1] is given as “cross-react with tumor cells expressing other SSX proteins”. Further, in the assay with peptide pulsed T2 cells [2], the “specific lysis of peptide pulsed targets by CTL from immunized mice” value is given as “specific lysis”.
Turning to “RMMNDQLMFL (listed as Homo sapiens) [PSMA662-671]”, in the assay with HLA-A2.1, the “binding to HLA-A2.1” value is recorded as “significant binding at even lower concentrations than the positive control peptide”. Further, the “binding activity compared between the two PSMA peptides” value in the assay with HLA-A2.1 (not run in parallel, comparison to the controls) is reported as “superior binding activity”.
Consider “GMPEGDLVYV (listed as Homo sapiens) [PSMA168-177]”, for which, in the assay with HLA-A2.1, the “binding to HLA-A2.1” value is “significant binding at even lower concentrations than the positive control peptides”.
In the case of “TLRVDCTPL (listed as Homo sapiens) [PSMA461-469]”, in the assay with HLA-A2.1, the “binding to HLA-A2.1” value is “binds nearly as well”.
For RVDCTPLMY [PSMA463-471], the “HLA restriction of response” value in the assay on HLA-A1+ CD8+ T cells is “HLA-A1-restricted response”.
Regarding “GLPSIPVHPI (listed as Homo sapiens) [PSMA288-297]”, the “binding to HLA-A2.1” value with HLA-A2.1 is listed as “significant binding at even lower concentrations than the positive control peptides”.
“FLPWHRLFLL (listed as Homo sapiens) [Tyrosinase207-216]”: the “relative production by in vitro proteasome digestion” value in [3] was “produced more commonly”.
Consider “FLPWHRLFL (listed as Homo sapiens) [tyrosinase207-215]”, for which, in the assay with HLA-A2.1, the “binding to HLA-A2.1” value is “more significant binding”. In addition, the immunogenicity entry with peptide pulsed T2 cells [4] (compared with the other tyrosinase length variant) is listed as “superior immunogenicity”. Further, the “recognition of tyrosinase207-216 targets by CTL induced by the peptide” value in the assay with peptide pulsed T2 cells [4] (peptide pulsed T2 cells, standard chromium release assay) is “equally well”. The “recognition of tumor cell line by CTL induced by the peptide” value in the assay with 624.38 and in the assay with HTB64 was “recognize” throughout.
